Data: publication PMC8646365

Molecular target: cancer-testis antigen Ny-ESO-1 peptide on HLA-A*02:01 (human)
Assay: NFAT-luciferase, TCR-KO CD8+ Jurkat

1G4_a95LY TCR showed an EC50 of peptide of 50 pM.
